Measured values published in paper PMC10705692.
Residue numbers refer to the chain shown, from its start. Names may count otherwise.

Legend:
[1] = paired-pulse whole-cell patch clamp, tau recovery; details: glycan lost; control: GluK2 WT
[2] = whole-cell patch clamp, HEK293T, tau desensitization; details: glycan lost
[3] = whole-cell patch clamp, 3 ms glutamate, tau deactivation; details: glycan lost
[4] = whole-cell patch clamp, HEK293T, 10 s domoate; details: glycan lost; control: GluK2 WT

B1: GluK2 KAR: T277A (protein)
parent chain: MKIISPVLSNLVFSRSIKVLLCLLWIGYSQGTTHVLRFGGIFEYVESGPMGAEELAFRFAVNTINRNRTLLPNTTLTYDTQKINLYDSFEASKKACDQLSLGVAAIFGPSHSSSANAVQSICNALGVPHIQTRWKHQVSDNKDSFYVSLYPDFSSLSRAILDLVQFFKWKTVTVVYDDSTGLIRLQELIKAPSRYNLRLKIRQLPADTKDAKPLLKEMKRGKEFHVIFDCSHEMAAGILKQALAMGMMTEYYHYIFTTLDLFALDVEPYRYSGVNMTGFRILNTENTQVSSIIEKWSMERLQAPPKPDSGLLDGFMTTDAALMYDAVHVVSVAVQQFPQMTVSSLQCNRHKPWRFGTRFMSLIKEAHWEGLTGRITFNKTNGLRTDFDLDVISLKEEGLEKIGTWDPASGLNMTESQKGKPANITDSLSNRSLIVTTILEEPYVLFKKSDKPLYGNDRFEGYCIDLLRELSTILGFTYEIRLVEDGKYGAQDDVNGQWNGMVRELIDHKADLAVAPLAITYVREKVIDFSKPFMTLGISILYRKPNGTNPGVFSFLNPLSPDIWMYILLAYLGVSCVLFVIARFSPYEWYNPHPCNPDSDVVENNFTLLNSFWFGVGALMQQGSELMPKALSTRIVGGIWWFFTLIIISSYTANLAAFLTVERMESPIDSADDLAKQTKIEYGAVEDGATMTFFKKSKISTYDKMWAFMSSRRQSVLVKSNEEGIQRVLTSDYAFLMESTTIEFVTQRNCNLTQIGGLIDSKGYGVGTPMGSPYRDKITIAILQLQEEGKLHMMKEKWWRGNGCPEEESKEASALGVQNIGGIFIVLAAGLVLSVFVAVGEFLYKSKKNAQLEKRSFCSAMVEELRMSLKCQRRLKHKPQAPVIVKTEEVINMHTFNDRRLPGKETMA
increases: other: rate of recovery from desensitization [1] | other: desensitization rate ([2]; control: GluK2 WT) | other: deactivation rate ([3]; control: GluK2 WT) | other: desensitization rate [4]

B2: GluK2 KAR: T277A/R775A (protein)
parent chain: B1 parent chain with R775A
increases: other: desensitization rate ([2]; control: R775A) | other: deactivation rate ([3]; control: R775A)
